Measured values taken from the Immune Epitope Database (IEDB).
Each block holds one sequence with its values, some of them ahead of it.

Tests used:
HLA-A*32:01 = assay: IEDB peptide-MHC binding, purified MHC/competitive/radioactivity; filed as Kd, often an IC50 or EC50 that approximates it; ≥ and ≤ were set here for values at or beyond the usual limits of such assays
HLA-A*02:06 = assay: as above; conditions: source organism: Dengue virus 3 Singapore/8120/1995
HLA-A*23:01 = assay: as above; conditions: source organism: Dengue virus 3 Singapore/8120/1995
HLA-B*35:01 = assay: as above; conditions: source organism: Dengue virus 3 Singapore/8120/1995
HLA-A*24:02 = assay: as above; conditions: source organism: Dengue virus 3 Singapore/8120/1995
HLA-B*58:01 = assay: as above
HLA-A*26:01 [1] = assay: as above; conditions: source organism: Dengue virus 3 Singapore/8120/1995
HLA-A*11:01 = assay: IEDB peptide-MHC binding, purified MHC/competitive/fluorescence; ≥ and ≤ were set here for values at or beyond the usual limits of such assays
HLA-A*03:01 [2] = assay: as above; conditions: source organism: Zaire ebolavirus
HLA-B*51:01 [3] = assay: IEDB peptide-MHC binding, purified MHC/competitive/fluorescence; filed as Kd, often an IC50 or EC50 that approximates it; ≥ and ≤ were set here for values at or beyond the usual limits of such assays
HLA-B*27:03 = assay: as above
HLA-B*39:01 = assay: as above
HLA-A*69:01 = assay: as above; conditions: source organism: Zaire ebolavirus
HLA-A*26:01 [4] = assay: as above
HLA-B*15:17 = assay: as above; conditions: source organism: Zaire ebolavirus
HLA-B*46:01 = assay: as above
HLA-B*57:01 [5] = assay: as above
HLA-B*18:01 = assay: as above
HLA-B*15:01 [6] = assay: as above
HLA-A*02:01 = assay: as above; conditions: source organism: Zaire ebolavirus
HLA-A*02:16 = assay: IEDB peptide-MHC binding, purified MHC/direct/fluorescence; filed as Kd, often an IC50 or EC50 that approximates it; ≥ and ≤ were set here for values at or beyond the usual limits of such assays; conditions: source organism: Ebola virus Yambio0403
HLA-A*03:01 [7] = assay: as above; conditions: source organism: Ebola virus Yambio0403
HLA-A*02:03 = assay: as above; conditions: source organism: Ebola virus Yambio0403
HLA-A*29:02 = assay: as above; conditions: source organism: Ebola virus Yambio0403
HLA-A*02:12 [8] = assay: as above; conditions: source organism: Ebola virus Yambio0403
HLA-A*02:11 [9] = assay: as above; conditions: source organism: Ebola virus Yambio0403
HLA-A*68:02 [10] = assay: as above; conditions: source organism: Ebola virus Yambio0403
HLA-A*02:19 = assay: as above; conditions: source organism: Ebola virus Yambio0403
HLA-A*24:03 = assay: as above; conditions: source organism: Zaire ebolavirus
HLA-B*57:01 [11] = assay: IEDB peptide-MHC binding, purified MHC/competitive/radioactivity; filed as Kd, often an IC50 or EC50 that approximates it; ≥ and ≤ were set here for values at or beyond the usual limits of such assays
HLA-A*03:01 [12] = assay: IEDB peptide-MHC binding, purified MHC/competitive/fluorescence; filed as Kd, often an IC50 or EC50 that approximates it; ≥ and ≤ were set here for values at or beyond the usual limits of such assays
HLA-A*01:01 = assay: as above
HLA-A*68:02 [13] = assay: as above
HLA-C*15:02 = assay: IEDB peptide-MHC binding, purified MHC/direct/fluorescence; filed as Kd, often an IC50 or EC50 that approximates it; ≥ and ≤ were set here for values at or beyond the usual limits of such assays; conditions: source organism: West Nile virus
HLA-B*51:01 [14] = assay: as above
HLA-B*51:01 [15] = assay: IEDB peptide-MHC binding, purified MHC/competitive/radioactivity; filed as Kd, often an IC50 or EC50 that approximates it; ≥ and ≤ were set here for values at or beyond the usual limits of such assays; conditions: source organism: Dengue virus 4 Philippines/H241/1956
HLA-B*53:01 = assay: as above
HLA-B*08:01 = assay: as above; conditions: source organism: Dengue virus 4 Philippines/H241/1956
HLA-A*02:12 [16] = assay: IEDB peptide-MHC binding, purified MHC/competitive/fluorescence; filed as Kd, often an IC50 or EC50 that approximates it; ≥ and ≤ were set here for values at or beyond the usual limits of such assays; conditions: source organism: Coxiella burnetii 'MSU Goat Q177'
HLA-A*02:11 [17] = assay: as above; conditions: source organism: Coxiella burnetii 'MSU Goat Q177'
HLA-A*68:02 [18] = assay: IEDB peptide-MHC binding, purified MHC/competitive/radioactivity; filed as Kd, often an IC50 or EC50 that approximates it; ≥ and ≤ were set here for values at or beyond the usual limits of such assays; conditions: source organism: Dengue virus 2 Jamaica/1409/1983
HLA-B*07:02 = assay: IEDB peptide-MHC binding, purified MHC/direct/fluorescence; filed as Kd, often an IC50 or EC50 that approximates it; ≥ and ≤ were set here for values at or beyond the usual limits of such assays; conditions: source organism: Vibrio parahaemolyticus
HLA-B*15:01 [19] = assay: as above; conditions: source organism: Vibrio parahaemolyticus RIMD 2210633
[20] = source organism: Dengue virus 3 Singapore/8120/1995
[21] = source organism: Zaire ebolavirus
[22] = source organism: Dengue virus 1 Singapore/S275/1990
[23] = source organism: Dengue virus 4 Philippines/H241/1956
[24] = source organism: Salmonella enterica subsp. enterica serovar Typhi
[25] = source organism: Escherichia coli str. K-12 substr. MG1655
[26] = source organism: West Nile virus
[27] = source organism: Dengue virus 1 Brazil/97-11/1997
[28] = source organism: Escherichia coli 536
[29] = source organism: Coxiella burnetii 'MSU Goat Q177'
[30] = source organism: Dengue virus 2 Jamaica/1409/1983

Sequence: MIAGVLFTF
- Kd (HLA-A*32:01; [20]): 1.88 nM
- Kd (HLA-A*02:06): 22.5 nM
- Kd (HLA-A*23:01): 26 nM
- Kd (HLA-B*35:01): 4.73 nM
- Kd (HLA-A*24:02): 50.4 nM
- Kd (HLA-B*58:01; [20]): 20.2 nM
- Kd (HLA-A*26:01 [1]): 1230 nM

Sequence: RSTKGGQQK
- IC50 (HLA-A*11:01; [21]): 1810 nM
- IC50 (HLA-A*03:01 [2]): 5630 nM

Sequence: SWHHTSDDF
- Kd (HLA-B*51:01 [3]; [21]): ≥ 20000 nM
- Kd (HLA-B*27:03; [21]): ≥ 20000 nM
- Kd (HLA-B*39:01; [21]): ≥ 20000 nM
- Kd (HLA-A*69:01): ≥ 20000 nM
- Kd (HLA-A*26:01 [4]; [21]): ≥ 20000 nM
- Kd (HLA-B*15:17): ≥ 20000 nM
- Kd (HLA-B*46:01; [21]): ≥ 20000 nM
- Kd (HLA-B*57:01 [5]; [21]): ≥ 20000 nM
- Kd (HLA-B*18:01; [21]): ≥ 20000 nM
- Kd (HLA-B*15:01 [6]; [21]): ≥ 20000 nM
- Kd (HLA-A*02:01): ≥ 20000 nM
- Kd (HLA-A*02:16): ≥ 20000 nM
- Kd (HLA-A*03:01 [7]): ≥ 20000 nM
- Kd (HLA-A*02:03): ≥ 20000 nM
- Kd (HLA-A*29:02): ≥ 20000 nM
- Kd (HLA-A*02:12 [8]): ≥ 20000 nM
- Kd (HLA-A*02:11 [9]): ≥ 20000 nM
- Kd (HLA-A*68:02 [10]): ≥ 20000 nM
- Kd (HLA-A*02:19): ≥ 20000 nM
- Kd (HLA-A*24:03): 18.7 nM

Sequence: TTFSLHYAW
- Kd (HLA-A*32:01; [22]): 1.33 nM
- Kd (HLA-B*58:01; [22]): 1.59 nM
- Kd (HLA-B*57:01 [11]; [22]): 1.42 nM

Sequence: ERSWNTGFDW
- Kd (HLA-B*58:01; [23]): 683 nM

Sequence: GTTEVNGLY
- Kd (HLA-A*03:01 [12]; [24]): 2160 nM
- Kd (HLA-A*01:01; [24]): 15.3 nM

- Kd (HLA-A*68:02 [13]; source organism: Escherichia coli HS): 809 nM
Sequence: EAIRQIHAQ

- Kd (HLA-A*01:01; [25]): ≥ 20000 nM
- Kd (HLA-B*15:01 [6]; [25]): 226 nM
Sequence: ELACAVPFY

Sequence: ATQVEQHHR
- IC50 (HLA-A*11:01; [21]): 5220 nM
- IC50 (HLA-A*03:01 [2]): ≥ 90800 nM

Sequence: GGRAHRMAL
- Kd (HLA-C*15:02): ≥ 20000 nM
- Kd (HLA-B*51:01 [14]; [26]): ≥ 20000 nM

Sequence: FYMASTWGA
- Kd (HLA-A*68:02 [13]; source organism: Entamoeba dispar SAW760): 83.1 nM

Sequence: MAMTTVLSI
- Kd (HLA-B*51:01 [15]): 36.3 nM
- Kd (HLA-B*53:01; [23]): 2.34 nM
- Kd (HLA-B*08:01): 16.3 nM
- Kd (HLA-B*58:01; [23]): 18.9 nM

Sequence: LNTIQFMHE
- IC50 (HLA-A*11:01; source organism: Vaccinia virus WR): ≥ 147000 nM

Sequence: SATRLENIMW
- Kd (HLA-B*58:01; [27]): 69.7 nM
- Kd (HLA-B*57:01 [11]; [27]): 11.7 nM

Sequence: SAIVLEFFMM
- Kd (HLA-B*58:01; source organism: Dengue virus 3 Martinique/1243/1999): 198 nM

- Kd (HLA-A*01:01; [28]): ≥ 20000 nM
- Kd (HLA-B*15:01 [6]; [28]): 284 nM
Sequence: ISRNTVKRY

Sequence: YYLIKYLHV
- Kd (HLA-B*51:01 [3]; [29]): ≥ 20000 nM
- Kd (HLA-B*27:03; [29]): ≥ 20000 nM
- Kd (HLA-B*39:01; [29]): ≥ 20000 nM
- Kd (HLA-A*03:01 [12]; [29]): ≥ 20000 nM
- Kd (HLA-A*26:01 [4]; [29]): ≥ 20000 nM
- Kd (HLA-B*46:01; [29]): ≥ 20000 nM
- Kd (HLA-A*02:12 [16]): 1170 nM
- Kd (HLA-B*57:01 [5]; [29]): ≥ 20000 nM
- Kd (HLA-A*02:11 [17]): 71.5 nM
- Kd (HLA-B*18:01; [29]): ≥ 20000 nM
- Kd (HLA-B*15:01 [6]; [29]): ≥ 20000 nM

Sequence: ESSPNPTIEA
- Kd (HLA-B*57:01 [11]; [30]): 2090 nM
- Kd (HLA-A*68:02 [18]): 52.3 nM

Sequence: HTWTEQYKF
- Kd (HLA-A*32:01; [30]): 151 nM
- Kd (HLA-B*57:01 [11]; [30]): 2.37 nM

Sequence: WMSNGTWNY
- Kd (HLA-A*01:01; source organism: Human immunodeficiency virus 1): 8.9 nM

Sequence: KTSIGLLCVM
- Kd (HLA-B*57:01 [11]; [22]): 11.4 nM

Sequence: KTWGKAKIF
- Kd (HLA-A*32:01; [23]): 60.3 nM
- Kd (HLA-B*57:01 [11]; [23]): 36.3 nM

Sequence: WMADVPLQW
- Kd (HLA-B*58:01; [20]): 0.528 nM

Sequence: EPATQTFDM
- Kd (HLA-B*51:01 [14]; source organism: Vibrio parahaemolyticus): ≥ 20000 nM
- Kd (HLA-B*07:02): 122 nM
- Kd (HLA-B*15:01 [19]): ≥ 20000 nM

Sequence: RPAADGKTV
- Kd (HLA-B*51:01 [14]; [26]): ≥ 20000 nM

Sequence: RAKGSRAIW
- Kd (HLA-B*58:01; [23]): 27.1 nM
- Kd (HLA-B*57:01 [11]; [23]): 172 nM

Sequence: GASTSQETW
- Kd (HLA-B*53:01; [27]): 623 nM
- Kd (HLA-B*58:01; [27]): 2.93 nM
- Kd (HLA-B*57:01 [11]; [27]): 10.2 nM
